Assay [1] concerns the target NELL2, full length (Supplementary Fig. 9c; species not stated) (not stated (human or mouse cDNA cloned)) (UniProt Q99435). Kind of assay: non-reducing SDS-PAGE; NELL2 and NELL2ΔCC on non-reducing (-DTT) and reducing (+DTT) SDS-PAGE; size from ladder standards.
In assay [2] the target is full-ectodomain Robo surface (SPR with full-length NELL2 as analyte). Briefly: SPR; mRobo3 ECD (167 RU) and mRobo1^Robo3-FN1 ECD (177 RU) biotinylated with NHS-Biotin and captured on a Biacore Series S SA chip; full-length mNELL2 as analyte; 1:1 Langmuir isotherm with a linear nonspecific-binding term; regeneration with 10 mM EDTA.
In assay [3] the target is mRobo1 ectodomain (mouse) (UniProt O89026). Kind of assay: SPR; mRobo1 ectodomain on a CM5 chip by random amine coupling (~1,200 RU); mNELL2 as analyte; 25 °C, 10 mM HEPES pH 7.2, 150 mM NaCl, 0.05% Tween-20, 0.1% BSA; KD from equilibrium responses assuming 50 to 100% active surface. On the technique in general: In SPR one partner is held on a chip, and binding of the other changes the refractive index at the surface.
Chain of mRobo1 ectodomain (mouse) (O89026 30-840): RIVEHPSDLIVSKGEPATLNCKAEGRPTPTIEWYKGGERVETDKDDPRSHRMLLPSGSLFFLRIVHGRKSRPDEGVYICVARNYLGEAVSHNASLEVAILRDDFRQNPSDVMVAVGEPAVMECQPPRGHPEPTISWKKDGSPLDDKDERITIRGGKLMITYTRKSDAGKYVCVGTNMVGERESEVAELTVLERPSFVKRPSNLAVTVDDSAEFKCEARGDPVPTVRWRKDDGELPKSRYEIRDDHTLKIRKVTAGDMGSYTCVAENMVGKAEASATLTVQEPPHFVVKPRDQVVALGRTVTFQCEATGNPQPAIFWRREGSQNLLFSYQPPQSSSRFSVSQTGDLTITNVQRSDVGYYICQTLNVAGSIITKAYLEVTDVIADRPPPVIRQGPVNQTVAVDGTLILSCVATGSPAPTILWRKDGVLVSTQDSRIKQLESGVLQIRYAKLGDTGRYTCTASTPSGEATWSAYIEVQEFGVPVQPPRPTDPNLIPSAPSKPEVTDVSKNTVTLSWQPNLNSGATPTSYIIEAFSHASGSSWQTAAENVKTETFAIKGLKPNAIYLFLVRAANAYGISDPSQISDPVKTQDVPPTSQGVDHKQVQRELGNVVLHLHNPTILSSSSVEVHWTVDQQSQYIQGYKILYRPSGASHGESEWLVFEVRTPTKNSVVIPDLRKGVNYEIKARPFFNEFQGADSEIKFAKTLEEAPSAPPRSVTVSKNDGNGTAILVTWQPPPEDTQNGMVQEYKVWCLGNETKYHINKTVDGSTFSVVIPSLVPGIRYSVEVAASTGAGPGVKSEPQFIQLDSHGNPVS

Assay [4] addresses mNELL2 (full length) (mouse). Briefly: SEC-MALS; Superose 6 Increase 10/300 in HBS (10 mM HEPES pH 7.2, 150 mM NaCl), Wyatt HELEOS II.
Assay [5] deals with mRobo3 ectodomain (mouse). Briefly: SPR; mRobo3 ECD (167 RU) or mRobo1Robo3-FN1 ECD (177 RU), NHS-biotin, on a Biacore Series S SA chip; mNELL2 full length or mNELL2 EGF1-6 as analyte; regeneration with 10 mM EDTA; equilibrium, 1:1 model with a linear non-specific binding term.
In assay [6] the target is mRobo1Robo3-FN1 ECD chimera (mouse) (UniProt O89026). The description is as above.
The target in assay [7] is mRobo1 ectodomain (mouse) (UniProt O89026). Briefly: SPR; mRobo1 ectodomain on a CM5 chip by random amine coupling (~1,200 RU); mNELL2 as analyte; 25 °C, 10 mM HEPES pH 7.2, 150 mM NaCl, 0.05% Tween-20, 0.1% BSA; KD from equilibrium responses assuming 50 to 100% active surface. This is another data set of the same source.
A further assay deals with mRobo3 FN1-3 (mouse). Kind of assay: SPR; biotinylated mRobo3 FN1-3 on a Biacore SA chip; mNELL2 EGF1-6 WT and mutants as analytes over the same channel; 20 s 10 mM EDTA pH 8, 150 mM NaCl between runs; 25 °C, 10 mM HEPES pH 7.2, 150 mM NaCl, 0.05% Tween-20, 0.1% BSA; equilibrium, 1:1 Langmuir.
A further assay addresses mRobo1 FN1-3 (mouse) (UniProt O89026). Kind of assay: SPR; mRobo1 FN1-3 (NHS-biotin on the N-terminal amine, 315 RU) on a Biacore SA chip; mNELL2 EGF1-6 as analyte; 25 °C, 10 mM HEPES pH 7.2, 150 mM NaCl, 0.05% Tween-20, 0.1% BSA; 1:1 Langmuir.
Assay [8] deals with mNELL2ΔCC (mouse). Briefly: SPR; mNELL2 or mNELL2ΔCC (100 RU each, NHS-biotin) on a Biacore Series S SA chip; mRobo3 ECD or mRobo3 FN1 as analyte; regeneration with 10 mM EDTA; equilibrium analysis.
Assay [9] addresses mNELL2 (full length) (mouse). Briefly: SEC; mNELL2 with excess mRobo3 FN1 on Superose 6 10/300; complex fractions quantified by fluorescent anti-His western blot against 1:1 standards. Background: SEC sorts molecules by how far they enter the pores of the column.
In assay [10] the target is mNELL2ΔCC (mouse). Briefly: SPR; mNELL2 or mNELL2ΔCC (100 RU each, NHS-biotin) on a Biacore Series S SA chip; mRobo3 ECD or mRobo3 FN1 as analyte; regeneration with 10 mM EDTA; equilibrium analysis. The source holds these as a separate data set.
Assay [11] concerns the target mNELL2 (full length) (mouse). The description is as above.
The target of assay [12] is biotinylated mouse Robo3 FN1–3 (Avi-tagged) (mouse) (UniProt Q9Z2I4). Briefly: SPR; biotinylated mRobo3 FN1–3 captured on an SA chip (Biacore); mNELL2 EGF1–6 WT and mutants as analyte; 25 °C, 10 mM HEPES pH 7.2, 150 mM NaCl, 0.05% Tween-20, 0.1% BSA; 1:1 Langmuir isotherm.
Chain of biotinylated mouse Robo3 FN1–3 (Avi-tagged) (mouse) (Q9Z2I4 558-869): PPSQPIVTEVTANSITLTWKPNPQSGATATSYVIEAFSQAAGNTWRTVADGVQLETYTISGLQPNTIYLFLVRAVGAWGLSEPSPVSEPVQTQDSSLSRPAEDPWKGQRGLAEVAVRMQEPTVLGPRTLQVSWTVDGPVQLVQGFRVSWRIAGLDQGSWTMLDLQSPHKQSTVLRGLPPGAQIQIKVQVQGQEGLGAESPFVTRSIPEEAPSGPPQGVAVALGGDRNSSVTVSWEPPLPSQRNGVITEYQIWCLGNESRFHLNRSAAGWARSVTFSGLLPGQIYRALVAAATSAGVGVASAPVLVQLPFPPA

The text below walks through data of publication PMC7083938.

Values joined by “and” are separate entries in the source; they are usually repeats but may differ in a detail not shown here. Equal entries are not always repeated. Where two headings read alike, the source gives them in different places. Where only a bound is given, the exact number is not on record here.

Chain of full-length mouse NELL2 (Q61220 25-819): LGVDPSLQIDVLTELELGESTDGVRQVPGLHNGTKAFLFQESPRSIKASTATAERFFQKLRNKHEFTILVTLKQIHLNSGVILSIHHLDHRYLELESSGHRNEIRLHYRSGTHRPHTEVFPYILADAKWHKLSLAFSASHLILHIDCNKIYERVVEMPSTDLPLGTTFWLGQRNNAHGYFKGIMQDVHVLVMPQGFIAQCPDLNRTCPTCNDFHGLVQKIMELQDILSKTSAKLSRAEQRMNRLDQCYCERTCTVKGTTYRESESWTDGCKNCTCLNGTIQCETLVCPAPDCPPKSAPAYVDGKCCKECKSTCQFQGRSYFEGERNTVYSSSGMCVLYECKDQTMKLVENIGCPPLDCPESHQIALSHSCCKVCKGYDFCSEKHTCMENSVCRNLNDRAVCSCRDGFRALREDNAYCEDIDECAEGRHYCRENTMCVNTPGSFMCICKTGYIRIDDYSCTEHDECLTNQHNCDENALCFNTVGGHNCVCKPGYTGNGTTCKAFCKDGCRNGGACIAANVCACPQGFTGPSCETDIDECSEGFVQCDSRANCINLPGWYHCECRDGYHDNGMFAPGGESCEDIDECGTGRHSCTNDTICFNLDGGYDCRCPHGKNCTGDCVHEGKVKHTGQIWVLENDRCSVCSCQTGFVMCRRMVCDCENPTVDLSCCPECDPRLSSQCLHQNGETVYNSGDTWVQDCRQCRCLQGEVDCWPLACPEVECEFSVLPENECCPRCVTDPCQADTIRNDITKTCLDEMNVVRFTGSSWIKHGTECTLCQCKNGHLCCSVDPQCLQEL
Chain of mRobo1 FN1-3 (mouse) (O89026 519-840): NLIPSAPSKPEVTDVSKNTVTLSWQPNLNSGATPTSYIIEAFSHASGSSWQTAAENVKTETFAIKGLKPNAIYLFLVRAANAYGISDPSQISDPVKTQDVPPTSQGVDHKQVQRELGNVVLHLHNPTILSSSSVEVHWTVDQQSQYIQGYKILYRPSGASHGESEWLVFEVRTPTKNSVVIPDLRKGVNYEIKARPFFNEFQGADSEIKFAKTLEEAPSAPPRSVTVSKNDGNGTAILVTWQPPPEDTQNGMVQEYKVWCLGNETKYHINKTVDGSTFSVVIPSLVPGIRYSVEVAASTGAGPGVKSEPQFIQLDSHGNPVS

A word on the stoichiometry N: it is the number of molecules, sites or subunits per partner or assembly. In the case of “NELL2, full length (Supplementary Fig. 9c; species not stated) (from UniProt Q99435 22-816) (ligand)”, the stoichiometry N in [1] amounted to 3.
A word on the Kd: it is the concentration at which binding is half-saturated. Lower therefore signals tighter binding. Consider “full-length mouse NELL2 (from UniProt Q61220 25-819) (ligand)”, for which the Kd in assay [2] is 0.5 to 1 µM.
For mNELL2 (full length) (ligand), the Kd in [3] is more than 100 µM; in assay [5], 0.94 µM; in assay [6], 0.47 µM; in [7] it was 350 µM. In assay [4], this substance displayed a stoichiometry N of 3.
Regarding “mNELL2 EGF1-6 R448A/Y450A (domain or fragment)”, the Kd with mRobo3 FN1-3 (mouse) was 87 µM. This lies in the double-digit micromolar range.
Turning to “mNELL2 EGF1-6 R452A (domain or fragment)”, in the assay with mRobo3 FN1-3 (mouse), the Kd turned out to be 1.7 µM.
In the assay with mRobo3 FN1-3 (mouse), “mNELL2 EGF1-6 V509A (domain or fragment)” yielded a Kd of 1.7 µM.
On to mNELL2 EGF1-6 WT (domain or fragment), for which the Kd in assay [5] came to 1.7 µM; in assay [6], 1.7 µM; with mRobo1 FN1-3 (mouse), 13.8 µM; with mRobo3 FN1-3 (mouse) it was 0.71 µM.
As for mRobo3 FN1 (domain or fragment), the Kd with mNELL2ΔCC (mouse) [8] is 0.71 µM and 0.89 µM; in the assay with mNELL2ΔCC (mouse) [10] it was 0.72 µM; in assay [11], 0.51 µM. Moreover, the stoichiometry N (mNELL2:mRobo3 FN1 (molar ratio)) in assay [9] is 1.16.
As to mRobo3 ectodomain (domain or fragment), the Kd with mNELL2ΔCC (mouse) [10] amounted to 1.8 µM; in [11] it was 0.89 µM.
On to “mouse NELL2 EGF1–6 L498A/F500A (domain or fragment)”, for which, in [12], the dissociation constant Kd is more than 100 µM and the fold reduction of affinity against wild-type mNELL2 came to 500 fold.
Regarding “mouse NELL2 EGF1–6 R448A/Y450A (domain or fragment)”, the fold reduction of affinity against wild-type mNELL2 in [12] worked out at 120 fold.
In assay [12], “mouse NELL2 EGF1–6 R452A (domain or fragment)” gave a dissociation constant (Kd) of 1.7 µM and a fold reduction of affinity against wild-type mNELL2 of 2.4 fold.
In assay [12], “mouse NELL2 EGF1–6 V509A (domain or fragment)” came in with a Kd of 1.7 µM and a fold reduction of affinity against wild-type mNELL2 of 2.4 fold.
